Laboratory results: US20200109207A1 (CELLDEX THERAPEUTICS, published 2020)

T1: full length wild type extracellular domain (ECD) of human CD27 (human, UniProt P26842 21-188)
T1 construct: also called wild type huCD27; ECD of huCD27
T1 sequence: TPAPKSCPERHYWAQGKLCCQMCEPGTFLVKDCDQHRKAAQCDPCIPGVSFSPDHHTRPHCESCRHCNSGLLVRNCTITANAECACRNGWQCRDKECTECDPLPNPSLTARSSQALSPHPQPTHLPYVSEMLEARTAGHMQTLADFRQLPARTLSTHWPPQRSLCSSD

T2: human CD27 on the cell surface (Ramos cells, human CD3+ T cells, CD27 reporter cell line) (human, UniProt P26842 20-260)
T2 construct: also called CD27 on cells
T2 sequence: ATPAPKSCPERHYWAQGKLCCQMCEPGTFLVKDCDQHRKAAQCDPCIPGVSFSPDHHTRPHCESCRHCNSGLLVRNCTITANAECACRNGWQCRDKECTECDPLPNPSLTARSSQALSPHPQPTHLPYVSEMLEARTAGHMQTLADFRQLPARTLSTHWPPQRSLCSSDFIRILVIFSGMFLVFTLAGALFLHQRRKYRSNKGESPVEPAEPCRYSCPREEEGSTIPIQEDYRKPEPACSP

T3: human CD27 ECD with mutated amino acids 85, 87, 88 and 89 (A85S, R87A, N88A and G89A) (human, UniProt P26842 21-188)
T3 construct: also called mutated huCD27; mutated CD27 ECD
T3 chain: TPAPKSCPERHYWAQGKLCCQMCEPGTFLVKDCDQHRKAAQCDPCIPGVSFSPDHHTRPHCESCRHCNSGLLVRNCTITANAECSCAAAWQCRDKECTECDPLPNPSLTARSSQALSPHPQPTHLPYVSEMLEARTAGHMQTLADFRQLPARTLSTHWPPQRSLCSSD

T4: recombinant human CD27-FLAG-HIS (human, UniProt P26842 20-191)
T4 sequence: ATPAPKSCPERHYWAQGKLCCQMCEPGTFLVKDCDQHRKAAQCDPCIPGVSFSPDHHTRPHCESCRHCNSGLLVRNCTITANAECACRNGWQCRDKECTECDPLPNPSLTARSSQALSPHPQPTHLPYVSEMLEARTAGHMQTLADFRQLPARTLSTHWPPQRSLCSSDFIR


Assays:
[1] = biological target: T1, full length wild type extracellular …; experiment: ELISA, plate coated with wild type CD27 ECD; supernatant of cells expressing mAb 2B3; anti-human IgG Fc-HRP
Procedure: (§1) The full length wild type extracellular domain (ECD) of human CD27 or human CD27 with mutated amino acids 85, 87, 88, and 89 (A85S, R87A, N88A and G89A; see FIG. 34) were coated to a plate, then blocked. Supernatant from transiently transfected cells expressing mAb 2B3 was added and binding was detected with an HRP conjugated goat anti-human IgG Fc polyclonal antibody.

[2] = biological target: T2, human CD27 on the cell surface (Ramos …); experiment: flow cytometry, Ramos cells expressing human CD27, antibody 3 µg/ml
Procedure: Antibodies were tested for binding to a human cell line expressing human CD27 on their surface. Protein A purified human monoclonal antibodies (3 μg/ml) were incubated with Ramos cells expressing human CD27 at room temperature on a plate shaker. After 20 minutes, the cells were washed with PBS containing 0.1% BSA and 0.05% NaN₃ (PBA) and the bound antibodies were detected by incubating the cells with a PE labeled goat anti-human IgG Fc-specific probe. The excess probe was washed from the cells with PBA and the cell associated fluorescence was determined by analysis using a FACSCanto II™ instrument (BD Biosciences, NJ, USA) according to the manufacturer's directions.

[3] = biological target: T3, human CD27 ECD with mutated amino acids …; experiment: ELISA, plate coated with mutated CD27 ECD; supernatant of transiently transfected cells expressing mAb 2B3; anti-human IgG Fc-HRP
Procedure: as §1

[4] = biological target: T4, recombinant human CD27-FLAG-HIS; experiment: ELISA, plate coated with recombinant human CD27-FLAG-HIS
Procedure: Microtiter plates were coated with recombinant human CD27-FLAG-HIS in PBS, and then blocked with 5% bovine serum albumin in PBS. Protein A purified human monoclonal antibodies were added at various concentrations and incubated at 37° C. The plates were washed with PBS/Tween and then incubated with a goat-anti-human IgG Fc-specific polyclonal reagent conjugated to horseradish peroxidase at 37° C. After washing, the plates were developed with HRP substrate, and analyzed at OD 450-650 nm using a microtiter plate reader.

[5] = biological target: T4, recombinant human CD27-FLAG-HIS; experiment: bifunctional ELISA generally as in Example 16 (CD27-FLAG-HIS coated, PD-L1-msFc detected)
Procedure: Binding of bispecific constructs to CD27 and PD-L1 was assessed using a bifunctional ELISA. Antibody AbX is a known anti-PD-L1 monoclonal antibody. In brief, a microtiter plate was coated with human CD27-FLAG-HIS. Dilutions of the bispecific constructs were allowed to bind before adding human PD-L1-msFc that was detected with an HRP labeled goat anti-mouse IgG (Fc specific) antibody.

binding result [1]	binding result [2]	binding result [3]	binding result [4]	binding result [5]	Binder
binds	binds	no binding	binds		anti-CD27 human monoclonal antibody 2B3 (antibody, V domains shown, In the cynomolgus CD27 ELISA hybridoma supernatants were used (human V regions with rat constant regions); also called mAb 2B3) VH: QVQLVQSGAEVKKPGASVKVSCKASGYTFTGYYIHWVRQAPGQGLEWMGWINPNSGGTNSAQKFQDRVTITRVTSINTAYMELSRLRSDDTAVYFCARDRLVLPWFGEIFPDAFDIWGQGTLVTVSS VL: EIVMTQSPATLSVSPGERATLSCRASQSIRSNLAWYQQKPGQAPRLLIYGASTRATGIPARFSGSGSGTEFTLTISSLQSENFAVYYCQQYNNWPLTFGGGTKVEIK
	binds		binds		anti-CD27 human monoclonal antibody 3C2 (antibody, V domains shown, hybridoma supernatant (rat constant regions) in the cynomolgus CD27 ELISA) VH: QAQLQESGPGLVKPSETLSLTCTVSTGSISGYYWSWIRQPPGKGLEWIGYNYYSGSTNYNPSLKSRVTISIDTSKNQFSLKLNSVTAADTAVYYCARYPLIRGAFDYWGQGTLVTVSS VL: not shown
				binds	CDX-527 (9H9×2B3 bispecific antibody: anti-PD-L1 IgG1 9H9 with anti-CD27 2B3 scFv) (bispecific antibody) heavy: not shown light: DIQMTQSPSTLSASVGDRVTITCRASQSISGWLAWYQQKPGKAPKLLIYKASSLESGVPSRFSGSGSGTEFTLTISSLQPDDFATYYCQQYYGSSRTFGQGTNVEIKRTVAAPSVFIFPPSDEQLKSGTASVVCLLNNFYPREAKVQWKVDNALQSGNSQESVTEQDSKDSTYSLSSTLTLSKADYEKHKVYACEVTHQGLSSPVTKSFNRGEC
